Measured values taken from patent publication US20220064324A1 (US Dept. of Health and Human Services, published 2022).
Numbering of substitutions follows the chain as printed.

T1: human mesothelin Region IAB Y318A mutant (human, UniProt Q13421 296-359)
T1 chain: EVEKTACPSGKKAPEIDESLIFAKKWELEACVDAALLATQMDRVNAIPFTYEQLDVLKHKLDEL

T2: human mesothelin Region IAB (296-359) (human, UniProt Q13421 296-359)
T2 construct: also called IAB domain
T2 chain: T1 chain with A23Y

T3: human mesothelin Fragment 1 (residues 296-390) (human, UniProt Q13421 296-390)
T3 construct: also called Region I
T3 chain: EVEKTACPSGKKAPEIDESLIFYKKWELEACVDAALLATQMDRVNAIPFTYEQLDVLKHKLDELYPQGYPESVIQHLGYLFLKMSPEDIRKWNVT

B1: A101 camel single-domain (VHH) monoclonal antibody (VHH)
VHH: QVQLVESGGGTVQAGGSLKLACAASGLPRTYNVMGWFRQAPGKEREGVAIIYTTTGATYYRDSVKGRATISQDNAKKSVSLQMNSLRPEDTAIYYCVARQPNSGPWEYWGQGTQVTVSS
notes: Isolated from a camel VHH phage display library; also called A101 antibody; A101 anti-mesothelin VHH antibody
B2: G8 camel single-domain (VHH) monoclonal antibody (VHH)
VHH: QVKLEESGGGSVQAGGSLRLSCTTSGYTNSYKWMGWFRQAPGQEREGVAVIYTGNDRTYYSDSVKGRFTISRDNAKNMIYLDMTRLRPEDSAVYECAIGHDGAWRYWGQGTQVTVSS
notes: Isolated from a camel VHH phage display library; also called G8 antibody; G8 anti-mesothelin VHH antibody

Assays:
[1] = target: T1, human mesothelin Region IAB Y318A mutant; assay: ELISA on Region IAB mutant Y318A, VHH concentration not given
[2] = target: T2, human mesothelin Region IAB (296-359); assay: ELISA on mesothelin Region IAB, VHH concentration not given
[3] = target: T3, human mesothelin Fragment 1 (residues …); assay: ELISA on mesothelin Region I, VHH concentration not given

Binder | binding result [1] | binding result [2] | binding result [3]
B1 | no binding | binds | binds
B2 | no binding | binds | binds
